Source: publication PMC12204343, “Regulatory Role of Serine59 in the Oligomeric Dynamics and Chaperone Function of αB-Crystallin” (Research Square, 2025)

T1: Alcohol dehydrogenase (UniProt P00330 1-348)
T1 sequence (looked up): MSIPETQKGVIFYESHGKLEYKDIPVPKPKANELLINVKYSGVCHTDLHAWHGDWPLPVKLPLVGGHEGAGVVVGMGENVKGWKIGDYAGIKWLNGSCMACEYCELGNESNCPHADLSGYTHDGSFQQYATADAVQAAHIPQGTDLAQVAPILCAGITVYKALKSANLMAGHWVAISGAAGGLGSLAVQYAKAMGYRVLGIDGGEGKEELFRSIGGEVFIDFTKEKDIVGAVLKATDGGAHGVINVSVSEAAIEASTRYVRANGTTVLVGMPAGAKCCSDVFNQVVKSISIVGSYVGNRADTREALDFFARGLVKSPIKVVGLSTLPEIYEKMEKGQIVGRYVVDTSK


Key:
αB-crystallin = αB-crystallin (UniProt P02511); test: SEC-MALS of homo-oligomer mass; TEM; conditions: reference: wild type; sites S59
Luciferase = Luciferase (UniProt P08659 1-550 = luciferase); test: cell-based or functional assay
Alcohol dehydrogenase = target: T1, Alcohol dehydrogenase; test: cell-based or functional assay
Lysozyme = Lysozyme (UniProt P00698 19-147); test: cell-based or functional assay
[1] = target: the molecule itself; test: SEC-MALS; HPLC coupled with MALS; proteins (0.15 mg in 0.05 mL) incubated at 37°C for 1 hour before analysis; self-association into oligomers
[2] = target: the molecule itself; test: negative-stain transmission electron microscopy; 0.05 mg/mL on glow-discharged carbon grids, 2% uranyl acetate; oligomers of the chaperone protein alone

Chain of Lysozyme (P00698 19-147): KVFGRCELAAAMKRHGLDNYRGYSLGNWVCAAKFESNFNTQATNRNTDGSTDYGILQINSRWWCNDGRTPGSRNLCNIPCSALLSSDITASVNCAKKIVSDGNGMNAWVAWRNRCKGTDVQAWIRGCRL
Chain of Luciferase (P08659 whole entry): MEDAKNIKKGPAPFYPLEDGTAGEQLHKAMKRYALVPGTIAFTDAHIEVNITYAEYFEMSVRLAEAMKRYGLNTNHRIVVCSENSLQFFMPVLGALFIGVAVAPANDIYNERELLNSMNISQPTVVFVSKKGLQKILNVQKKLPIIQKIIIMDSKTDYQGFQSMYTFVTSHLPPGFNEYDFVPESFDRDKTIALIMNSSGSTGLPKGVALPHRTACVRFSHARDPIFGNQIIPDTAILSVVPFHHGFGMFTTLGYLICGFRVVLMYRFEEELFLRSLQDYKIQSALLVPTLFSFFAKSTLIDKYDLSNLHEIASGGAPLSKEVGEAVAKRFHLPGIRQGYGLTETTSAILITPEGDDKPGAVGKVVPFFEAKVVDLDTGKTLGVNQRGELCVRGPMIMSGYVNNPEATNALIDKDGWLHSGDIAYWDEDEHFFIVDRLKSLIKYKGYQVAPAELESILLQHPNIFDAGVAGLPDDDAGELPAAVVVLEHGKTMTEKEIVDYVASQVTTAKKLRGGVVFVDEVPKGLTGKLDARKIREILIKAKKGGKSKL

Molecule	other: average oligomeric mass (αB-crystallin)	EC50 of suppression of luciferase (0.5 μM) aggregation, light scattering at 360 nm, 90 min, PBS, 37°C (Luciferase) [nM]	EC50 of suppression of ADH (2.5 μM) aggregation, light scattering at 360 nm, 90 min, PBS + 50 mM EDTA, 37°C (Alcohol dehydrogenase) [nM]	protection against DTT-induced lysozyme (10 μM) aggregation, 2.5 μM chaperone, PBS, 2 mM DTT, 37°C, 6 hours (Lysozyme) [%]	binding result [1]	binding result [2]	chaperone efficiency against ADH (2.5 μM) aggregation relative to αB-S59D, light scattering at 360 nm, 90 min, PBS + 50 mM EDTA, 37°C (Alcohol dehydrogenase) [fold]
αB-crystallin (from UniProt P02511) ΔS59	same; reference 579	–	–	–	–	–	–
αB-crystallin (from UniProt P02511) S59D	weaker; reference 579	–	–	–	–	–	–
wild-type αB-crystallin (natural protein, human, UniProt P02511 1-175, looked up, αB-crystallin, human, wild type; forms large polydisperse oligomers; no tag is mentioned; also called αB-WT; WT-αB; source: E. coli BL21(DE3)pLysS, purified (Q-Sepharose, Superdex and Superose 6 size exclusion, ammonium sulphate)) MDIAIHHPWIRRPFFPFHSPSRLFDQFFGEHLLESDLFPTSTSLSPFYLRPPSFLRAPSWFDTGLSEMRLEKDRFSVNLDVKHFSPEELKVKVLGDVIEVHGKHEERQDEHGFISREFHRKYRIPADVDPLTITSSLSSDGVLTVNGPRKQVSGPERTIPITREEKPAVTAAPKK	–	4300	1000	~52	binds	–	–
αB-crystallin S59A (natural protein, human, UniProt P02511 1-175, looked up, αB-crystallin, human, with the substitution S59A; Made by site-directed mutagenesis; called the control mutant; also called αB-S59A; source: E. coli BL21(DE3)pLysS, purified (Q-Sepharose, Superdex and Superose 6 size exclusion, ammonium sulphate)) MDIAIHHPWIRRPFFPFHSPSRLFDQFFGEHLLESDLFPTSTSLSPFYLRPPSFLRAPAWFDTGLSEMRLEKDRFSVNLDVKHFSPEELKVKVLGDVIEVHGKHEERQDEHGFISREFHRKYRIPADVDPLTITSSLSSDGVLTVNGPRKQVSGPERTIPITREEKPAVTAAPKK	stronger; reference 579	13700	1400	84	binds	–	–
αB-crystallin S59D (phosphomimetic mutant) (natural protein, human, UniProt P02511 1-175, looked up, αB-crystallin, human, with the phosphomimetic substitution S59D; Made by site-directed mutagenesis; also called αB-S59D; αBS59D; source: E. coli BL21(DE3)pLysS, purified (Q-Sepharose, Superdex and Superose 6 size exclusion, ammonium sulphate)) MDIAIHHPWIRRPFFPFHSPSRLFDQFFGEHLLESDLFPTSTSLSPFYLRPPSFLRAPDWFDTGLSEMRLEKDRFSVNLDVKHFSPEELKVKVLGDVIEVHGKHEERQDEHGFISREFHRKYRIPADVDPLTITSSLSSDGVLTVNGPRKQVSGPERTIPITREEKPAVTAAPKK	–	1100	500	–	binds	–	–
αB-crystallin ΔS59 (deletion of Serine 59) (natural protein, human, UniProt P02511 1-175, looked up, αB-crystallin, human, with Serine 59 deleted; Made by site-directed mutagenesis; also called αB-ΔS59; source: E. coli BL21(DE3)pLysS, purified (Q-Sepharose, Superdex and Superose 6 size exclusion, ammonium sulphate)) MDIAIHHPWIRRPFFPFHSPSRLFDQFFGEHLLESDLFPTSTSLSPFYLRPPSFLRAPWFDTGLSEMRLEKDRFSVNLDVKHFSPEELKVKVLGDVIEVHGKHEERQDEHGFISREFHRKYRIPADVDPLTITSSLSSDGVLTVNGPRKQVSGPERTIPITREEKPAVTAAPKK	–	8300	1200	60	binds	–	–
αB-crystallin with residues 54–61 deleted (natural protein, human, UniProt P02511 1-175, looked up, αB-crystallin, human, with residues 54–61 deleted; also called αB-Δ54–61; αBΔ54–61) MDIAIHHPWIRRPFFPFHSPSRLFDQFFGEHLLESDLFPTSTSLSPFYLRPPSDTGLSEMRLEKDRFSVNLDVKHFSPEELKVKVLGDVIEVHGKHEERQDEHGFISREFHRKYRIPADVDPLTITSSLSSDGVLTVNGPRKQVSGPERTIPITREEKPAVTAAPKK	–	1200	–	> 95	–	binds	1.6
